The text below walks through data of the supplement of paper PMC11246515.

The data set can be described thus: total protein half-life in vivo (active degradation + dilution); higher = more stable protein.
[1] abbreviates: E. coli NCM3722 delta-clpP delta-lon delta-hslV, growth: N-lim chemostat, doubling time 6 h.
Where [2] appears, read: E. coli NCM3722 delta-clpP, growth: N-lim chemostat, doubling time 6 h.
[3] abbreviates: E. coli NCM3722 delta-hslV, growth: N-lim chemostat, doubling time 6 h.
[4] abbreviates: E. coli NCM3722 delta-smpB, growth: N-lim chemostat, doubling time 6 h.
The mark [5] stands for this setting: wild type E. coli NCM3722, growth: C-lim chemostat, doubling time 3 h.
Setting [6] is: wild type E. coli NCM3722, growth: C-lim chemostat, doubling time 6 h.
The mark [7] stands for this setting: wild type E. coli NCM3722, growth: C-lim chemostat, doubling time 12 h.
[8] abbreviates: wild type E. coli NCM3722, growth: N-lim chemostat, doubling time 6 h.
The mark [9] stands for this setting: wild type E. coli NCM3722, growth: N-lim chemostat, doubling time 12 h.
[10] abbreviates: wild type E. coli NCM3722, growth: P-lim chemostat, doubling time 6 h.
Where [11] appears, read: wild type E. coli NCM3722, growth: P-lim chemostat, doubling time 12 h.
The mark [12] stands for this setting: E. coli NCM3722 delta-lon, growth: N-lim chemostat, doubling time 6 h.

± gives the standard deviation of the averaged measurements.

Regarding “MRWQGRRESDNVEDRRNSSGGPSMGGPGFRLPSGKGGLILLIVVLVAGYYGVDLTGLMTGQPVSQQQSTRSISPNEDEAAKFTSVILATTEDTWGQQFEKMGKTYQQPKLVMYRGMTRTGCGAGQSIMGPFYCPADGTVYIDLSFYDDMKDKLGADGDFAQGYVIAHEVGHHVQKLLGIEPKVRQLQQNATQAEVNRLSVRMELQADCFAGVWGHSMQQQGVLETGDLEEALNAAQAIGDDRLQQQSQGRVVPDSFTHGTSQQRYSWFKRGFDSGDPAQCNTFGKSI”, the “total protein half-life in vivo” value under setting [1] was 5.3 ± 0.69 h; the “total protein half-life in vivo” value under setting [2] was found to be 6.06 ± 0.32 h; the “total protein half-life in vivo” value under setting [3] was 5.36 ± 0.17 h; the “total protein half-life in vivo” value under setting [4] came to 4.87 ± 0.34 h; the “total protein half-life in vivo” value under setting [5] was 2.861 ± 0.027 h; the “total protein half-life in vivo” value under setting [6] worked out at 5.19 ± 0.22 h. Further, the “total protein half-life in vivo” value is 7.6 ± 3 h under setting [7]; 5.54 ± 0.5 h under setting [8]; 11.2 ± 2 h under setting [9]; 3.37 ± 0.57 h under setting [10]; 8.39 ± 3.7 h under setting [11].
Regarding “MFEYLPELMKGLHTSLTLTVASLIVALILALIFTIILTLKTPVLVWLVRGYITLFTGTPLLVQIFLIYYGPGQFPTLQEYPALWHLLSEPWLCALIALSLNSAAYTTQLFYGAIRAIPEGQWQSCSALGMSKKDTLAILLPYAFKRSLSSYSNEVVLVFKSTSLAYTITLMEVMGYSQLLYGRTYDVMVFGAAGIIYLVVNGLLTLMMRLIERKALAFERRN [P0AE30]”, the “total protein half-life in vivo” value worked out at 5.31 h under setting [1]; 6.27 h under setting [2]; 5.01 h under setting [12]; 5.55 h under setting [6]; 5.22 h under setting [8]; 6.32 h under setting [10]. Further, under setting [11], the “total protein half-life in vivo” value came to 11 h.
“MTTQYGFFIDSSRCTGCKTCELACKDYKDLTPEVSFRRIYEYAGGDWQEDNGVWHQNVFAYYLSISCNHCEDPACTKVCPSGAMHKREDGFVVVDEDVCIGCRYCHMACPYGAPQYNETKGHMTKCDGCYDRVAEGKKPICVESCPLRALDFGPIDELRKKHGDLAAVAPLPRAHFTKPNIVIKPNANSRPTGDTTGYLANPKEV”: the “total protein half-life in vivo” value reads like this: under setting [1], 5.26 h; under setting [6], 6.7 h.
Take “MTKHARFFLLPSFILISAALIAGCNDKGEEKAHVGEPQVTVHIVKTAPLEVKTELPGRTNAYRIAEVRPQVSGIVLNRNFTEGSDVQAGQSLYQIDPATYQANYDSAKGELAKSEAAAAIAHLTVKRYVPLVGTKYISQQEYDQAIADARQADAAVIAAKATVESARINLAYTKVTAPISGRIGKSTVTEGALVTNGQTTELATVQQLDPIYVDVTQSSNDFMRLKQSVEQGNLHKENATSNVELVMENGQTYPLKGTLQFSDVTVDESTGSITLRAVFPNPQHTLLPGMFVRARIDEGVQPDAILIPQQGVSRTPRGDATVLIVNDKSQVEARPVVASQAIGDKWLISEGLKSGDQVIVSGLQKARPGEQVKATTDTPADTASK”: the “total protein half-life in vivo” value under setting [7] was 13.2 h.
For the sequence “MFKPELLSPAGTLKNMRYAFAYGADAVYAGQPRYSLRVRNNEFNHENLQLGINEAHALGKKFYVVVNIAPHNAKLKTFIRDLKPVVEMGPDALIMSDPGLIMLVREHFPEMPIHLSVQANAVNWATVKFWQQMGLTRVILSRELSLEEIEEIRNQVPDMEIEIFVHGALCMAYSGRCLLSGYINKRDPNQGTCTNACRWEYNVQEGKEDDVGNIVHKYEPIPVQNVEPTLGIGAPTDKVFMIEEAQRPGEYMTAFEDEHGTYIMNSKDLRAIAHVERLTKMGVHSLKIEGRTKSFYYCARTAQVYRKAIDDAAAGKPFDTSLLETLEGLAHRGYTEGFLRRHTHDDYQNYEYGYSVSDRQQFVGEFTGERKGDLAAVAVKNKFSVGDSLELMTPQGNINFTLEHMENAKGEAMPIAPGDGYTVWLPVPQDLELNYALLMRNFSGETTRNPHGK”, the “total protein half-life in vivo” value was determined as 2.98 ± 0.19 h under setting [1]; 1.94 ± 0.45 h under setting [2]; 1.96 ± 0.29 h under setting [3]; 2.01 ± 0.14 h under setting [12]; 1.77 ± 0.092 h under setting [4]; 2.77 ± 0.029 h under setting [5]. The “total protein half-life in vivo” value under setting [6] was determined as 3.68 ± 0.062 h; the “total protein half-life in vivo” value under setting [7] was 5.83 ± 0.49 h; the “total protein half-life in vivo” value under setting [8] was 1.91 ± 0.17 h; the “total protein half-life in vivo” value under setting [9] came out at 2.5 ± 0.0042 h; the “total protein half-life in vivo” value under setting [10] came to 4.1 ± 0.069 h; the “total protein half-life in vivo” value under setting [11] was 7.89 ± 0.33 h.
For the sequence “MMNPVLWLQMTNMISYQGLVRTFLNKNDLKAFIAFPSSLYPDDPNWIPPLFIERNEHLSAKNPGTDHIIWQAWVAKKAGQIVGRITAQIDTLHRERYGKDTGHFGMIDAIDDPQVFAALFGAAEAWLKSQGASKISGPFSLNINQESGLLIEGFDTPPCAMMPHGKPWYAAHIEQLGYHKGIDLLAWWMQRTDLTFSPALKKLMDQVRKKVTIRCINRQRFAEEMQILREIFNSGWQHNWGFVPFTEHEFATMGDQLKYLVPDDMIYIAEIDSAPCAFIVGLPNINEAIADLNGSLFPFGWAKLLWRLKVSGVRTARVPLMGVRDEYQFSRIGPVIALLLIEALRDPFARRKIDALEMSWILETNTGMNNMLERIGAEPYKRYRLYEKQI”, the “total protein half-life in vivo” value by setting is: under setting [3], 2.23 h; under setting [4], 3.38 h.
In the case of “MAMYQNMLVVIDPNQDDQPALRRAVYLHQRIGGKIKAFLPIYDFSYEMTTLLSPDERTAMRQGVISQRTAWIHEQAKYYLNAGVPIEIKVVWHNRPFEAIIQEVISGGHDLVLKMAHQHDRLEAVIFTPTDWHLLRKCPSPVWMVKDQPWPEGGKALVAVNLASEEPYHNALNEKLVKETIELAEQVNHTEVHLVGAYPVTPINIAIELPEFDPSVYNDAIRGQHLLAMKALRQKFGINENMTHVEKGLPEEVIPDLAEHLQAGIVVLGTVGRTGISAAFLGNTAEQVIDHLRCDLLVIKPDQYQTPVELDDEEDD [P0AAC0]”, the “total protein half-life in vivo” value turned out to be 4.78 ± 0.088 h under setting [1]; 4.77 ± 0.46 h under setting [2]; 4.73 ± 0.4 h under setting [3]; 5.473 ± 0.017 h under setting [12]; 4.47 ± 0.11 h under setting [4]; 2.97 ± 0.39 h under setting [5]. Also, the “total protein half-life in vivo” value reads like this: under setting [6], 5.6 ± 0.071 h; under setting [7], 9.86 ± 0.44 h; under setting [8], 5.01 ± 0.17 h; under setting [9], 8.64 ± 0.4 h; under setting [10], 5.56 ± 0.67 h; under setting [11], 12.2 ± 0.15 h.
For the sequence “MRRFLTTLMILLVVLVAGLSALVLLVNPNDFRDYMVKQVAARSGYQLQLDGPLRWHVWPQLSILSGRMSLTAQGASQPLVRADNMRLDVALLPLLSHQLSVKQVMLKGAVIQLTPQTEAVRSEDAPVAPRDNTLPDLSDDRGWSFDISSLKVADSVLVFQHEDDEQVTIRNIRLQMEQDPQHRGSFEFSGRVNRDQRDLTISLNGTVDASDYPHDLTAAIEQINWQLQGADLPKQGIQGQGSFQAQWQESHKRLSFNQISLTANDSTLSGQAQVTLTEKPEWQLRLQFPQLNLDNLIPLNETANGENGAAQQGQSQSTLPRPVISSRIDEPAYQGLQGFTADILLQASNVRWRGMNFTDVATQMTNKSGLLEITQLQGKLNGGQVSLPGTLDATSINPRINFQPRLENVEIGTILKAFNYPISLTGKMSLAGDFSGADIDADAFRHNWQGQAHVEMTDTRMEGMNFQQMIQQAVERNGGDVKAAENFDNVTRLDRFTTDLTLKDGVVTLNDMQGQSPVLALTGEGMLNLADQTCDTQFDIRVVGGWNGESKLIDFLKETPVPLRVYGNWQQLNYSLQVDQLLRKHLQDEAKRRLNDWAERNKDSRNGKDVKKLLEKM”, the “total protein half-life in vivo” value is 6.52 ± 0.57 h under setting [1]; 6.45 ± 0.47 h under setting [3]; 6.24 ± 0.085 h under setting [12]; 6.43 ± 0.59 h under setting [4]; 3.54 ± 0.42 h under setting [5]; 6.18 ± 0.13 h under setting [6]. The “total protein half-life in vivo” value under setting [7] was determined as 11.4 ± 0.47 h; the “total protein half-life in vivo” value under setting [8] was determined as 6.231 ± 0.012 h; the “total protein half-life in vivo” value under setting [9] came out at 13 ± 0.012 h; the “total protein half-life in vivo” value under setting [10] turned out to be 6.266 ± 0.044 h; the “total protein half-life in vivo” value under setting [11] stood at 11.5 ± 0.13 h.
